Legend:
[1] = molecular target: T1, purified untagged wild-type FliW (FliW^WT) (B. subtilis, UniProt P96503 1-143); experiment: pull-down; 0.25 uM GST-CsrA (WT or D41K) on Glutathione-Sepharose beads; FliW at 0.125, 0.167, 0.25, 0.333 and 0.5 uM, 2 h at 4 C in T(0.1) buffer (25 mM Tris-HCl pH 8.0, 20% glycerol, 100 mM NaCl, 1 mM DTT, 1 mg/mL BSA); 4 washes; supernatant and pellet on Western blots; conditions: both partners purified
T1 construct: FliW, Bacillus subtilis; also called His6-SUMO-FliW^WT before cleavage; source: E. coli Rosetta gami, purified (Ni-NTA, size exclusion chromatography, SUMO tag cleaved)
T1 sequence (looked up): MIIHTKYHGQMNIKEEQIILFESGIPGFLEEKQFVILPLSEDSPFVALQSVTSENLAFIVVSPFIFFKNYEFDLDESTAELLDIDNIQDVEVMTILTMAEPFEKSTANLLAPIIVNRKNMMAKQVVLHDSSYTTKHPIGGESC

[2] = molecular target: T2, purified FliW^K123E (B. subtilis, UniProt P96503 1-143, K123E); experiment: as above; conditions: both partners purified
T2 construct: FliW, Bacillus subtilis, with K123E; cloned in pTB146 (SapI/XhoI); source: E. coli Rosetta gami, purified (Ni-NTA, size exclusion chromatography, SUMO tag cleaved)
T2 sequence (looked up): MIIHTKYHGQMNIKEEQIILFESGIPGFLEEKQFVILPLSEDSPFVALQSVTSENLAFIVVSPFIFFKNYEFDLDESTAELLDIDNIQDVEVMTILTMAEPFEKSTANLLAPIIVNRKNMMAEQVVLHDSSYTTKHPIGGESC

| Binder | binding result [1] | binding result [2] |
| --- | --- | --- |
| GST tagged CsrA (GST-CsrA^WT) (natural protein, B. subtilis, UniProt P33911 1-74, looked up, CsrA, Bacillus subtilis, fused to GST; The D41K form was cloned in pGEX-2TK; source: E. coli Rosetta gami, purified (Glutathione-Sepharose, size exclusion chromatography)) MLVLSRKINEAIQIGADIEVKVIAVEGDQVKLGIDAPKHIDIHRKEIYLTIQEENNRAAALSSDVISALSSQKK | binds | – |
| GST-CsrA^D41K (natural protein, B. subtilis, UniProt P33911 1-74, looked up, CsrA, Bacillus subtilis, with D41K, translational fusion to the GST tag in pGEX-2TK (BamHI/EcoRI); source: E. coli Rosetta gami, purified (Glutathione-Sepharose, size exclusion chromatography)) MLVLSRKINEAIQIGADIEVKVIAVEGDQVKLGIDAPKHIKIHRKEIYLTIQEENNRAAALSSDVISALSSQKK | – | binds |
